Experimental data reported in US9144594B2, “Cathepsin L mediated diseases and associated methods and products” (University of Miami, priority 2005, dated 2015).
Positions count from the first letter of the chain named. Names and notes keep the numbering of the source. “Also recorded” adds a separate entry of the source.

Assays:
cathepsin L = experiment: Generation of dynamin p40 fragment in LPS-treated cultured podocytes (Western blot); type: cell-based, mouse; conditions: podocytes expressing the variant, LPS-treated
Chain of cathepsin L (P06797 114-333 limits assumed): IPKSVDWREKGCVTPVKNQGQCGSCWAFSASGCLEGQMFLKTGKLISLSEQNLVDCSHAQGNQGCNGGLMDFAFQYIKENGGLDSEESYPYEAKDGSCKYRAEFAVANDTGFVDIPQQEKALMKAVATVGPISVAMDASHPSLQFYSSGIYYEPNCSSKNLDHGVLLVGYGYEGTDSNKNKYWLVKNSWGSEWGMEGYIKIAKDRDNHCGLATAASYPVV
Source text: Next, it was examined whether cathepsin L could process dynamin in vivo, and whether this processing required GTP binding by dynamin. To this end, cultured podocytes were infected with adenoviruses expressing dynWT as well as different dynamin mutants. Infected podocytes were subsequently treated with LPS. LPS treatment increases cathepsin L presence and the activity in the cytosol (FIG. 3), and thus is expected to induce generation of the 40 kD proteolytic fragment. Respective cytosols were probed using the GTPase antibodies in order to detect N-terminal 40 kD proteolytic fragment. Expression of dynWT in podocytes treated with LPS identified proteolytic fragments that traveled with the same mobility as fragments observed in vitro. […] Furthermore, significant amount of p40 was present in cells expressing dynR725A prior to LPS treatment. […] Given complete protection of cathepsin L cleavage by GTPγS, it was reasoned that LPS treatment was somehow inducing dynR725A self-assembly, which in turn was protecting dynR725A from cathepsin L cleavage. This in turn would explain ability of dynR725A to counteract LPS and PAN treatment (FIG. 1D). […] Biochemical difference between dynWT, dynK694A and dynR725A is that only dynR725A is impaired in the rate of GTP-hydrolysis of assembled dynamin. This is important because GTP-hydrolysis drives disassemble of dynamin. Thus, while all three dynamins are predicted to self-assemble by LPS treatment, only dynR725A will stay assembled due to its inability to hydrolyze GTP. Once assembled dynWT and dynK694A hydrolyze GTP they will fall apart and thus become accessible for cathepsin L cleavage.
To explore CatL-mediated dynamin cleavage in vivo, cultured podocytes were infected with adenoviruses encoding different dynamin mutants and subsequently treated with LPS (FIG. 19G). […] To confirm the identity of the cleavage site, the ELSGGA (SEQ ID NO.29) sequence was mutated to EQSVGA (SEQ ID NO.31) (for simplicity, the mutant is subsequently referred to as dynL356Q). […] Finally, a GTPase-defective dynamin mutant was examined. Dynamin carrying a mutation in its […] (dynR725A) oligomerizes, but is impaired in assembly-stimulated GTP-hydrolysis. DynR725A is therefore predicted to live longer in the assembled state.
(§1) Podocytes were grown under non-permissive conditions to 70% confluence. Cells were washed twice with 1×PBS and infected with 1.2 ml of serum-free DMEM media containing 100 μl transactivator virus, 100 μl virus expressing dyn1 or dyn2. After 2 h of infection at 37° C., media containing virus was replaced with full DMEM. If cells were treated with LPS or PAN, 50 μg/ml of LPS or 50 μg/ml PAN was added at this point. 18-24 h post-infection, cells were detached using trypsin and processed either for subcellular fractionation or tested in the motility assays as described in (Reiser et al., J Biol Chem 279, 34827-34832 (2004)). When stated, 20 μM of Z-FF-FMK CatL specific inhibitor (Calbiochem, San Diego, Calif.) was added simultaneously with addition of LPS.

podocytes = experiment: Podocyte motility, modified Boyden chamber assay; type: cell-based, mouse; conditions: for podocyte motility, in words: adenoviral overexpression
Source text: This study examined the role of dynamin in actin dynamics of podocytes. An adenoviral expression system was utilized to obtain expression of various dynamin mutants with more than 90% infection efficiency in cultured differentiated mouse podocytes and analyzed the organization of the actin cytoskeleton, their migratory and endocytotic behavior (FIG. 1). […] This type of actin rearrangement in cultured podocytes is resembling actin rearrangement in damaged podocytes during proteinuria in situ (Smoyer and Mundel, 1998). […] Thus, the consequence on actin dynamics in podocytes was examined when dynamin is hyperactive by expressing known dominant activators, dynK694A and dynR725A (SEQ ID NO.4). Both mutants are predicted to live longer in the GTP-bound form. […] To further examine this surprising phenotype in a biological context, motility assays were performed next using a modified Boyden Chamber assay.
Podocyte migration was analyzed using a 12-well chemotaxis chamber (Neuro Probe) according to the manufacturer's protocol. In brief, differentiated podocytes were treated with 50 μg/ml of LPS or PAN for 24 h and then harvested for the migration assay. Bottom plates were coated with type-I collagen, while upper plates were loaded with equal number of cells (5×10^4) suspended in medium. The chamber was incubated at 37° C. for 4 h before unassembled. The membrane was then taken out, processed and finally stained with diamidino phenylindole (DAPI) (Vector). The average number of migrated cells was counted in four fields in six independent experiments.
as §1

podocyte FP = experiment: Podocyte foot process architecture by electron microscopy after gene delivery; type: in vivo, mouse; conditions: gene delivery into wildtype mice
Source text: Next it was explored whether gene delivery of dynamin mutants dynR725A and dynL356Q, G358V into mice can be expressed in podocytes and if this procedure can affect podocyte FP architecture and function. First, we needed to establish a safe and reliable detection system of transferred gene expression in podocytes. Therefore we analyzed which dynamin isoforms are expressed in podocytes by RT-PCR. Podocytes express mainly dynamin 2 and little dynamin 3 but no dynamin 1 (FIG. 5A). Gene-transfer CMV promotor driven dynamin 1 constructs were used because neuronal dynamin protein is normally not expressed in podocytes and could be easily tracked by a specific monoclonal dynamin 1 antibody (FIG. 5B). […] Monoclonal dynamin antibodies MAB 5402 […] were used, which predominantly recognize dynamin 1 (FIG. 5B). Labeling of glomerular sections with MAB 5402 detected some minimal background labeling of dynamin, representing endogenous dynamin 2 (FIG. 5C). The gene transfer of dynamin 1 expression vectors led to a strong expression of dynamin 1 in glomerular cells including podocytes (FIG. 5D). Some of this labeling was also detected in podocytes, which are marked positively by synaptopodin staining, resulting in a yellow staining pattern (FIG. 5E).

## dynWT: wild type dynamin overexpressed by adenovirus or delivered as dynamin 1 cDNA
Cathepsin L
  p40 generation from dynamin variant, in words: resulted in generation of p40
podocytes
  podocyte motility, in words: did not change podocyte motility
Podocyte FP
  podocyte FP architecture, in words: did not result in changes of podocyte FP architecture

B1: dynK44A: dominant-negative dynamin mutant that cannot bind GTP (protein, UniProt Q05193 1-864, looked up, variant K44A)
Dynamin-1: MGNRGMEDLIPLVNRLQDAFSAIGQNADLDLPQIAVVGGQSAGASSVLENFVGRDFLPRGSGIVTRRPLVLQLVNATTEYAEFLHCKGKKFTDFEEVRLEIEAETDRVTGTNKGISPVPINLRVYSPHVLNLTLVDLPGMTKVPVGDQPPDIEFQIRDMLMQFVTKENCLILAVSPANSDLANSDALKVAKEVDPQGQRTIGVITKLDLMDEGTDARDVLENKLLPLRRGYIGVVNRSQKDIDGKKDITAALAAERKFFLSHPSYRHLADRMGTPYLQKVLNQQLTNHIRDTLPGLRNKLQSQLLSIEKEVEEYKNFRPDDPARKTKALLQMVQQFAVDFEKRIEGSGDQIDTYELSGGARINRIFHERFPFELVKMEFDEKELRREISYAIKNIHGIRTGLFTPDMAFETIVKKQVKKIREPCLKCVDMVISELISTVRQCTKKLQQYPRLREEMERIVTTHIREREGRTKEQVMLLIDIELAYMNTNHEDFIGFANAQQRSNQMNKKKTSGNQDEILVIRKGWLTINNIGIMKGGSKEYWFVLTAENLSWYKDDEEKEKKYMLSVDNLKLRDVEKGFMSSKHIFALFNTEQRNVYKDYRQLELACETQEEVDSWKASFLRAGVYPERVGDKEKASETEENGSDSFMHSMDPQLERQVETIRNLVDSYMAIVNKTVRDLMPKTIMHLMINNTKEFIFSELLANLYSCGDQNTLMEESAEQAQRRDEMLRMYHALKEALSIIGDINTTTVSTPMPPPVDDSWLQVQSVPAGRRSPTSSPTPQRRAPAVPPARPGSRGPAPGPPPAGSALGGAPPVPSRPGASPDPFGPPPQVPSRPNRAPPGVPSRSGQASPSRPESPRPPFDL
Cathepsin L
  p40 generation from dynamin variant, in words: did not result in detectable levels of p40
podocytes
  podocyte motility, in words: dramatically increased cell motility
Podocyte FP
  podocyte FP architecture, in words: induced a severe rearrangement of the actin based podocyte FPs

B2: dynK694A: dominant activator dynamin mutant impaired in self-assembly (protein)
chain: B1 Dynamin-1 with A44K, K694A
podocytes
  podocyte motility, in words: did not change podocyte motility

B3: dynL356Q, G358V: dynamin mutant (SEQ ID NO.3) not recognized by cathepsin L; ELSGGA mutated to EQSVGA (protein, listed as Homo sapiens)
chain: B1 Dynamin-1 with A44K, L356Q, G358V
Cathepsin L
  p40 generation from dynamin variant, in words: yielded no p40
Podocyte FP
  podocyte FP architecture, in words: did not show any significant changes in podocyte FP structure

B4: dynR725A: dynamin mutant (SEQ ID NO.4) with impaired GTP hydrolysis capacity (protein, listed as Homo sapiens)
chain: B1 Dynamin-1 with A44K, R725A
Cathepsin L
  p40 generation from dynamin variant, in words: completely abolished presence of the p40; also recorded: did not generate p40
podocytes; LPS-treated podocytes
  LPS-induced increase in podocyte motility, in words: blocked the LPS-induced increase in podocyte motility
podocytes
  podocyte motility, in words: significantly decreased podocyte motility; also recorded: decreasing motility
Podocyte FP
  podocyte FP architecture, in words: resulted in partial FP effacement
